The target of experiment [1] is Type I fibrillar collagen (Chronolog, Havertown, Pa.). Nature of the experiment: plate binding assay on fibrillar collagen, biotin label detected with streptavidin-HRP, saturation curve fit.
For experiment [2] the target is unchanged. Nature of the experiment: plate assay on fibrillar collagen, biotin labeled peptidoglycan detected with streptavidin-HRP, Abs 450 nm.
The target is the same in experiment [3]. Nature of the experiment: diffusion from fibrillar collagen coated plate at 37° C., loaded at 10 µM, biotin label detected with streptavidin-HRP.
Experiment [4] has as its target collagen (type and supplier not stated; Examples 11 and 12). The experiment in a line: SPR (Biacore 2000, CM-3 chip), collagen immobilized, peptide in flow at 100 µM to 1.5 µM. (In general: In SPR one partner is held on a chip, and binding of the other changes the refractive index at the surface.)

Where no end group is shown, it is not given here. Side-chain parts run from the residue outwards. dermatan sulfate = dermatan sulfate, the glycan component of the peptidoglycan; BMPH = crosslinker coupling the Cys thiol to oxidized dermatan sulfate

B1: biotin labeled peptidoglycan DS-SILY18 (DS-SILY18-biotin) (peptide)
peptide: RRANAALKAGELYKSILYGC([BMPH-dermatan sulfate])
modifications: not fully specified (C-terminus); also: 18 SILY peptides per dermatan sulfate, 2 of them biotin labeled, biotin position not given here
Turning to B1, the Kd in experiment [1] amounted to 24 nM. Further, in experiment [2], the EC50 (read off the curve) was 20 nM. In experiment [3], the amount remaining bound after 1 week of extensive rinsing (equivalent concentration) is 10 nM.
The molecule RRANAALKAGELYKSILYGC [peptide … (SILY)] gave a Kd in experiment [4] of 1200 nM.

B2: biotin labeled peptidoglycan DS-SILY4 (DS-SILY4-biotin) (peptide)
peptide: RRANAALKAGELYKSILYGC([BMPH-dermatan sulfate])
modifications: not fully specified (C-terminus); also: 4 SILY peptides per dermatan sulfate, biotin label on every peptide, position not given here
Molecule B2 came in with a Kd in experiment [1] of 118 nM. The molecule also displayed an EC50 (read off the curve) in experiment [2] of 100 nM.

By Kd is commonly meant a measure of binding affinity in units of concentration. A lower Kd goes with tighter binding. The term EC50 (read off the curve) denotes the concentration that produces a half-maximal response. A lower EC50 (read off the curve) goes with a more potent agent.
